In patent publication US10272135B2, “Apolipoprotein O and fragments thereof for inducing apoptosis in a cancerous cell” (INSERM (INSTITUT NATIONAL DE LA SANTÉ ET DE LA RECHERCHE …, priority 2014, dated 2019):

Tested on: mouse liver
Assay: Hydrodynamics-based in vivo transfection of the mouse liver
From the text: After ethical committee approval, all patients in this study gave written consent for sample collection and molecular analysis prior to inclusion. Patients were carefully selected by physicians from the Department of Cardiology, Toulouse University Hospital, prior to coronary by-pass surgery. Bioinformatics. Microarray expression data from human heart samples were downloaded from the GEO repository (GSE1145). This series consisted of 107 myocardial samples collected from patients undergoing cardiac transplantation whose failure arises from different etiologies (e.g. idiopathic dilated cardiomyopathy, ischemic cardiomyopathy, valvular cardiomyopathy, and hypertrophic cardiomyopathy) and from “normal” organ donors whose hearts cannot be used for transplants. Arrays were intensity normalized and hierarchical clustering (average group linkage, Pearson correlation, threshold r=0.8) was applied to identify groups of co-expressed genes. ApoO expression levels were plotted for the 107 human hearts tested and used to define relevant molecular pathways using both Toppgene and Ingenuity Pathway Analysis (Ingenuity systems, Redwood City, Calif., USA). ApoO subcellular localization was predicted using Mitopred, mitoprot and YLoc. Animals: All animal Studies followed the INSERM Institute Animal Facility guidelines and were approved by the animal care committees of the INSERM I2MC UMR 1048. All animal procedures were performed according to the guidelines of the French Ministry of Agriculture. Animals were housed at the Toulouse I2MC animal facility in a room lit 12 h per day (6 AM-6 PM) at an ambient temperature of 22+/−1° C. Construction of ApoO Expression Vectors To overexpress human ApoO (pTT-ApoO), the ApoO coding sequence was amplified using primers hApoO5BamPTT (SEQ ID NO: 2) and hApoO3BamPTT (SEQ ID NO: 3) and cloned into the BamH1 site of pTT expression vector. pSNAP-ApoO was generated by PCR amplification of pTT-ApoO using primers SnapApoEcorV-F (SEQ ID NO: 4) and SnapApoEcorV-R (SEQ ID NO: 5) and cloned into the EcoRV site of pSNAP-Tag® (Ozyme, Saint-Quentin-en-Yvelines, France). pGEX2T-ApoO was constructed by PCR amplification of pTT-ApoO using hApoOpGEX1FBam (SEQ ID NO: 6) and hApoOpGEX1RSma (SEQ ID NO: 7) and cloned into the Bam HI/Sma I site of pGEX2T (Promega, Charbonnières-les-Bains). All primers used in this work were synthesized by Eurogentec France (Angers). All restriction enzymes used were from New England Biolabs (Ozyme, Saint-Quentin-en-Yvelines). All ApoO sequences within the expression vectors were verified by DNA double strand sequencing using ABI PRISM®BigDye™ Terminator version 3.1 Ready reaction cycle sequencing kit (Life Technologies SAS, Villebon sur Yvette) and loaded on an ABI 3130XL DNA sequencing instrument (Life Technologies SAS, Villebon sur Yvette). Cell Culture and Tranfection of H9C2 Cardic Myoblasts H9c2 were obtained from the European Collection of Cell Cultures (Salisbury, England). H9c2 cells were cultured in Dulbecco's modified Eagle medium (Life Technologies SAS, Villebon sur Yvette) adjusted to contain 1.5 g/liter sodium bicarbonate and supplemented with antibiotic-antimycotic solution (Life Technologies SAS, Villebon sur Yvette) and 10% fetal bovine serum (FBS, AbCys s.a., Paris). Cells were plated on 10-cm diameter tissue culture dish and grown in a 5% CO2 incubator at 37° C. with saturating humidity with medium changes every 2 days. […]

B1: ApoO: 198-amino acid apolipoprotein, SEQ ID NO: 1; tested by overexpression from expression vectors or transgene (protein, listed as Homo sapiens)
chain: MFKVIQRSVGPASLSLLTFKVYAAPKKDSPPKNSVKVDELSLYSVPEGQSKYVEEARSQLEESISQLRHYCEPYTTWCQETYSQTKPKMQSLVQWGLDSYDYLQNAPPGFFPRLGVIGFAGLIGLLLARGSKIKKLVYPPGFMGLAASLYYPQQAIVFAQVSGERLYDWGLRGYIVIEDLWKENFQKPGNVKNSPGTK
Caspase-3 activity in liver (48 hours after transfection (FIG. 9e)): confirmed | Bax expression in liver (48 hours after transfection (FIG. 9d)): confirmed | diglyceride levels in liver (ApoO transfected liver vs control vector (FIG. 8c)): increased | intracellular triglycerides in liver (ApoO transfected liver vs control vector (FIG. 8d)): did not significantly modify | oxygen consumption of isolated liver mitochondria (in vivo transfected mouse liver): significant increase
